Drawing on patent publication US20120316071A1 (published 2012), this text covers ECL signal for three molecules.

The target of assay [1] is T1, rHuman HGF R/c-MET/Fc Chimera, CF (R&D Systems Cat#358-MT/CF) (human, UniProt P08581 25-932).
T1 construct: Bought recombinant protein; also called HGF R/Fc; not shown: Fc of the bought chimera
Nature of the assay: MSD ECL multispot assay, antigen spotted on plate, Fab in solution; blank spot of this row 274.

Assay [2] addresses T2, rHuman IGF-1 sR (insulin-like growth factor-1 soluble receptor), CF (R&D Systems Cat#391-GR) (human, UniProt P08069 31-932).
T2 construct: Bought recombinant soluble receptor
The description is as above.

The target of assay [3] is T3, rHuman P-Cadherin/Fc Chimera, CF (R&D Systems Cat#861-PC) (human, UniProt P22223 108-654).
T3 construct: Bought recombinant protein; not shown: Fc of the bought chimera
The assay is described as above.

The target of assay [4] is T4, Recombinant Human DLL4 (R&D Systems Cat#1506-D4/CF) (human, UniProt Q9NR61 27-524).
T4 construct: Bought recombinant protein; also called delta-like protein 4; rHuman DLL4
Described as above.

The target of assay [5] is T5, rHuman ErbB2/Fc Chimera, CF (R&D Systems Cat#1129-ER) (human, UniProt P04626 23-652).
T5 construct: Bought recombinant protein; not shown: Fc of the bought chimera
The assay is described as above.

Assay [6] addresses T6, rHuman EGF R/Fc Chimera, CF (R&D Systems Cat#344-ER) (human, UniProt P00533 25-645).
T6 construct: Bought recombinant protein; not shown: Fc of the bought chimera
The description is as above.

The target in assay [7] is T1, rHuman HGF R/c-MET/Fc Chimera, CF (R&D …). The assay is described as follows: MSD ECL multispot assay, antigen spotted on plate, Fab in solution; blank spot of this row 277.
For assay [8], the target named is T2, rHuman IGF-1 sR (insulin-like growth …). The assay is described as above.
In assay [9] the target is T3, rHuman P-Cadherin/Fc Chimera, CF (R&D …). The description is as above.
In assay [10] the target is T4, Recombinant Human DLL4 (R&D Systems …). The description is as above.
The target of assay [11] is T5, rHuman ErbB2/Fc Chimera, CF (R&D …). The description is as above.
For assay [12], the target named is T6, rHuman EGF R/Fc Chimera, CF (R&D …). The description is as above.
Assay [13] deals with T1, rHuman HGF R/c-MET/Fc Chimera, CF (R&D …). Nature of the assay: MSD ECL multispot assay, antigen spotted on plate, Fab in solution; blank spot of this row 282.
Assay [14] has as its target T2, rHuman IGF-1 sR (insulin-like growth …). Described as above.
Assay [15] deals with T3, rHuman P-Cadherin/Fc Chimera, CF (R&D …). The assay is described as above.
Assay [16] has as its target T4, Recombinant Human DLL4 (R&D Systems …). The assay is described as above.
Assay [17] addresses T5, rHuman ErbB2/Fc Chimera, CF (R&D …). Described as above.
In assay [18] the target is T6, rHuman EGF R/Fc Chimera, CF (R&D …). The description is as above.
Assay [19] has as its target T1, rHuman HGF R/c-MET/Fc Chimera, CF (R&D …). Nature of the assay: MSD ECL multispot assay, antigen spotted on plate, Fab in solution; blank spot of this row 317.
In assay [20] the target is T7, rHuman Notch-1/Fc Chimera, CF (R&D Systems Cat#3647-TK) (human, UniProt P46531 19-526).
T7 construct: Bought recombinant protein; not shown: Fc of the bought chimera
The description is as above.

Assay [21] deals with T8, rHuman CD44/Fc Chimera, CF (R&D Systems Cat#3660-CD) (human, UniProt P16070 21-220).
T8 construct: Bought recombinant protein; not shown: Fc of the bought chimera
The description is as above.

Assay [22] addresses T2, rHuman IGF-1 sR (insulin-like growth …). The description is as above.
For assay [23], the target named is T3, rHuman P-Cadherin/Fc Chimera, CF (R&D …). The description is as above.
Assay [24] concerns the target T9, rHuman Erythropoietin R/Fc Chimera, CF (R&D Systems Cat#963-ER) (human, UniProt P19235 25-250).
T9 construct: Bought recombinant protein; also called EPO R; EPO R/Fc; not shown: Fc of the bought chimera
T9 sequence (looked up): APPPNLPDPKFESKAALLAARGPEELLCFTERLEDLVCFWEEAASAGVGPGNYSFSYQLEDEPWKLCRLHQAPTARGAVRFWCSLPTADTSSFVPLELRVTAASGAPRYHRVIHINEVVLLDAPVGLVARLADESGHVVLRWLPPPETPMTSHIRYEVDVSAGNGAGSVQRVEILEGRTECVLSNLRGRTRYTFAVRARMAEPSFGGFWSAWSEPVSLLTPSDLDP
Described as above.

Assay [25] has as its target T5, rHuman ErbB2/Fc Chimera, CF (R&D …). The assay is described as above.
The target of assay [26] is T6, rHuman EGF R/Fc Chimera, CF (R&D …). The description is as above.
Assay [27] concerns the target T1, rHuman HGF R/c-MET/Fc Chimera, CF (R&D …). The assay is described as follows: MSD ECL multispot assay, antigen spotted on plate, Fab in solution; blank spot of this row 278.
Assay [28] concerns the target T7, rHuman Notch-1/Fc Chimera, CF (R&D …). The description is as above.
For assay [29], the target named is T8, rHuman CD44/Fc Chimera, CF (R&D Systems …). The assay is described as above.
The target of assay [30] is T2, rHuman IGF-1 sR (insulin-like growth …). Described as above.
The target of assay [31] is T3, rHuman P-Cadherin/Fc Chimera, CF (R&D …). The assay is described as above.
In assay [32] the target is T9, rHuman Erythropoietin R/Fc Chimera, CF …. The assay is described as above.
Assay [33] addresses T4, Recombinant Human DLL4 (R&D Systems …). Described as above.
The target of assay [34] is T5, rHuman ErbB2/Fc Chimera, CF (R&D …). The assay is described as above.
Assay [35] has as its target T6, rHuman EGF R/Fc Chimera, CF (R&D …). The description is as above.

T1 sequence (P08581 25-932, change not shown): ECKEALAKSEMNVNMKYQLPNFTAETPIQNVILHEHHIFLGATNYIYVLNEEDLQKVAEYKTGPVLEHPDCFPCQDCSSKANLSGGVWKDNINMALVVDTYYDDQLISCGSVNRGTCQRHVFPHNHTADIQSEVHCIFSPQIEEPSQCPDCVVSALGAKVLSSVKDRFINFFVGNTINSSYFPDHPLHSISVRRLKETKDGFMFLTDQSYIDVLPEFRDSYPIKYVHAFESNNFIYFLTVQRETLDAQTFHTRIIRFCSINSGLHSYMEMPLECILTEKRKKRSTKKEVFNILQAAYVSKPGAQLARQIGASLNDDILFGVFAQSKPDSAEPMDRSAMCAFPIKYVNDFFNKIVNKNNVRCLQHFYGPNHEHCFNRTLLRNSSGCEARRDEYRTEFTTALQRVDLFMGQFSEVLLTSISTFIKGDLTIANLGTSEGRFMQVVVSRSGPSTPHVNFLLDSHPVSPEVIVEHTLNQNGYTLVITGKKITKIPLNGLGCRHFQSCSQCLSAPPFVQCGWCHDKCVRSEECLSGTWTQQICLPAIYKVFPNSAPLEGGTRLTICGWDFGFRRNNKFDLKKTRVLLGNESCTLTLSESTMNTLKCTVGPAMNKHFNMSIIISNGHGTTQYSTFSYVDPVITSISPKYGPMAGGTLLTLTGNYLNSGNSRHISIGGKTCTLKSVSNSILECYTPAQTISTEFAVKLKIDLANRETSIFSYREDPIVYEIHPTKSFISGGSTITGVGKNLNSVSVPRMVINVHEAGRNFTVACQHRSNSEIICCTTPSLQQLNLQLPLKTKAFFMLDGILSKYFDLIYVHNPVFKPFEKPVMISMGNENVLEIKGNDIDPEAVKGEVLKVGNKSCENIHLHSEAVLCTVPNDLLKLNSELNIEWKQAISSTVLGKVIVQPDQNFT

B1: Fab VH1-46_IGHD6-6*01_IGHJ1*01 S102A/S103P/S104F/H111F (APFF) & L6_IGKJ1*01 (Fab, V domains shown)
VH: QVQLVQSGAEVKKPGASVKVSCKASGYTFTSYYMHWVRQAPGQGLEWMGIINPSGGSTSYAQKFQGRVTMTRDTSTSTVYMELSSLRSEDTAVYYCAREEYAPFSAEYFQFWGQGTLVTVSS
VL: not shown
notes: Fab; also called APFF / parent; H:APFF & L:wt
Turning to B1, the ECL signal in assay [1] came out at 339; in assay [2], 305; in [3] it was 283; in [4], 164000; in assay [5], 236; in assay [6], 266. In addition, the ECL signal was found to be 267 in assay [7]; 221 in assay [8]; 299 in assay [9]; 165000 in [10]; 311 in [11]; 307 in assay [12]. Also, the ECL signal was 321 in assay [13]; 249 in assay [14]; 302 in assay [15]; 165000 in [16]; 259 in assay [17]; 290 in assay [18].

B2: Fab VH1-46_IGHD6-6*01_IGHJ1*01 S102A/S103P/S104F/H111F (APFF) & L6_IGKJ1*01 S92V (Fab, V domains shown)
VH: QVQLVQSGAEVKKPGASVKVSCKASGYTFTSYYMHWVRQAPGQGLEWMGIINPSGGSTSYAQKFQGRVTMTRDTSTSTVYMELSSLRSEDTAVYYCAREEYAPFSAEYFQFWGQGTLVTVSS
VL: EIVLTQSPATLSLSPGERATLSCRASQSVSSYLAWYQQKPGQAPRLLIYDASNRATGIPARFSGSGSGTDFTLTISSLEPEDFAVYYCQQRVNWPPWTFGQGTKVEIKR
notes: Fab; also called APFF / S92V
Consider B2, for which the ECL signal in assay [19] worked out at 230; in [20], 262; in assay [21], 248; in assay [22] it was 244; in assay [23], 373; in assay [24], 371. For the same molecule, the ECL signal in assay [25] turned out to be 188; in assay [26], 319.

B3: Fab VH1-46_IGHD6-6*01_IGHJ1*01 S102A/S103P/S104F/H111F (APFF) & L6_IGKJ1*01 S92T (Fab, V domains shown)
VH: QVQLVQSGAEVKKPGASVKVSCKASGYTFTSYYMHWVRQAPGQGLEWMGIINPSGGSTSYAQKFQGRVTMTRDTSTSTVYMELSSLRSEDTAVYYCAREEYAPFSAEYFQFWGQGTLVTVSS
VL: EIVLTQSPATLSLSPGERATLSCRASQSVSSYLAWYQQKPGQAPRLLIYDASNRATGIPARFSGSGSGTDFTLTISSLEPEDFAVYYCQQRTNWPPWTFGQGTKVEIKR
notes: Fab; also called APFF / S92T
For B3, the ECL signal was 290 in assay [27]; 231 in assay [28]; 290 in [29]; 308 in assay [30]; 387 in assay [31]; 424 in assay [32]. In addition, the ECL signal in assay [33] was determined as 54100; in assay [34], 237; in assay [35], 295.
